Measured values published in US20240360183A1 (SHANGHAI PUYOU BIOMEDICAL, published 2024).
Numbering of substitutions follows the chain as printed.

B1: CF-11 (SEQ ID NO: 31) (peptide)
chain: SEKKQPVDLGLLEEDDEFEEFPAEDWAGLDEDEDAHVWEDNWDDDNVEDDFSNQLRATVLLMILVVETPYGVYVLHQKGRMVSAFLVV
B2: CF-10 (SEQ ID NO: 30) (peptide)
chain: B1 chain with V66C, V72C, V82C, V87C, V88A
B3: CF-22 (SEQ ID NO: 36) (peptide)
chain: B1 chain with V72A, V82A
B4: CF-38 (SEQ ID NO: 51) (peptide)
chain: B1 chain with E2T, D25S, D34S, E48T, D49S, V66C, V72C, V82C, V87C, V88C
B5: CF-40 (SEQ ID NO: 53) (peptide)
chain: B1 chain with E48T, D49S, V66C, V72C, V82C, V87C, V88C
B6: CF-39 (SEQ ID NO: 52) (peptide)
chain: B1 chain with D34S, E48T, D49S, V66C, V72C, V82C, V87C, V88C
B7: CF-25 (SEQ ID NO: 39) (peptide)
chain: B1 chain with V82A, V87A
B8: CF-04 (SEQ ID NO: 29) (peptide)
chain: B1 chain with V66A, V72A, V82A, V87A, V88A
B9: CF-24 (SEQ ID NO: 38) (peptide)
chain: B1 chain with V72A, V88A
B10: CF-28 (SEQ ID NO: 45) (peptide)
chain: SEFEDANKEQGEVPNDDVSDELPKLLDDDEDELRGALFFQWHDWEEAEDNDWDVEDATVLLMILVCETPYGCYVLHQKGRMCSAFLCC
B11: CF-30 (SEQ ID NO: 47) (peptide)
chain: SDADEFDDDNSVWGWEDDEVEPNDAFQPLGDVRANEELDEKDHKLDEEADLQWEFELTVLLMILVCETPYGCYVLHQKGRMCSAFLCC
B12: CF-31 (SEQ ID NO: 48) (peptide)
chain: SQWAPLDHLESDEWGAFEDEDFNNGDVEELDPEERDDEDLFQKDVLVAKADDEEWDNTVLLMILVCETPYGCYVLHQKGRMCSAFLCC
B13: CF-29 (SEQ ID NO: 46) (peptide)
chain: SELDFWDNWKDRQADLPAASDDEDFENDLAEVDHEDPLVDGNEWDGDEVEFELEEQKTVLLMILVCETPYGCYVLHQKGRMCSAFLCC
B14: CF-43 (SEQ ID NO: 54) (peptide)
chain: SEKKQPVDLGLLEEDDEFEEFPAEDWAGLDEDEDAHVWEDNWDDDNVTSDFSNQLRATVLLMILVCETPYGCYVLHQKGRMCS

What was measured:
BSA = BSA (UniProt P02769 25-607); experiment: cell-based or functional assay
oxidized HSA protein = oxidized HSA protein (UniProt P02768 25-609, oxidized with 8 mM NaClO in the dark for 30 min (which residues are oxidized is not stated)); experiment: cell-based or functional assay
oxidized HSA protein, sequence (P02768 25-609): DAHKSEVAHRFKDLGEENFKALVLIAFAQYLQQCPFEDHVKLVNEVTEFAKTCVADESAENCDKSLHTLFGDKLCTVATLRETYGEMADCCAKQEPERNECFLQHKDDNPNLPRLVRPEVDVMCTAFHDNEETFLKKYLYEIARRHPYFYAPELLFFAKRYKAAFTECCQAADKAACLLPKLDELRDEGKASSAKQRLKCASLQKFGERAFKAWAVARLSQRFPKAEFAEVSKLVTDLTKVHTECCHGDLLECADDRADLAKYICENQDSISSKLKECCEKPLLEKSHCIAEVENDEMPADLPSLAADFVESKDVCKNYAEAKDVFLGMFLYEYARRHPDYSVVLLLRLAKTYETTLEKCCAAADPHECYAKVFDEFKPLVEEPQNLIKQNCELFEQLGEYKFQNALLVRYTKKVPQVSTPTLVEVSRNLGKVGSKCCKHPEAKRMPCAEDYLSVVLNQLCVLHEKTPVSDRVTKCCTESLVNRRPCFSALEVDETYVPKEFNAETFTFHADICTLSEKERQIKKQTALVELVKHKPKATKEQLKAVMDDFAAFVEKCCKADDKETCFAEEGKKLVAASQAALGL

BSA, sequence (P02769 25-607 limits assumed): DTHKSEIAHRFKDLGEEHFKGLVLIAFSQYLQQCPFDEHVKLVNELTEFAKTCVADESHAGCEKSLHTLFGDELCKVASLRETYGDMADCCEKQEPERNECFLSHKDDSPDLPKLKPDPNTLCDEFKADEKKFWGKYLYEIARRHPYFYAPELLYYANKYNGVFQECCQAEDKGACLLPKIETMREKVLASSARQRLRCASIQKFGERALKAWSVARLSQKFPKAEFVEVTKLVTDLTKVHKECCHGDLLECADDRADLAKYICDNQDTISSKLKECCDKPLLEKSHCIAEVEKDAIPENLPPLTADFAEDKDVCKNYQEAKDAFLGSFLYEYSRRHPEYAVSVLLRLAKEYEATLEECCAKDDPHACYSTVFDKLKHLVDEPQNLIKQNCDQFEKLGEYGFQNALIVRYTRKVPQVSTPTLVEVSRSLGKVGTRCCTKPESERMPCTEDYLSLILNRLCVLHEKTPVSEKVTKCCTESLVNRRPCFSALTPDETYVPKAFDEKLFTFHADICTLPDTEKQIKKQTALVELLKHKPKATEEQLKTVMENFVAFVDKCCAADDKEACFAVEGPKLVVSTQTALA

Binder	IC50 (µM) for inhibiting thermal aggregation of BSA (BSA)	IC50 (µM) for cellular ROS level induced by DAMP (oxidized HSA protein)
B1	~7 µM	
B2	13.8 µM	
B3	16.9 µM	
B4	13.8 µM	4.12 µM
B5	12 µM	5.87 µM
B6	10.5 µM	3.91 µM
B7	21.5 µM	
B8	~10.2 µM	
B9	17.6 µM	
B10	7.48 µM	
B11	21.3 µM	
B12	12.8 µM	
B13	13.8 µM	
B14	6.77 µM	6.13 µM
